B1: AtG11 (Arabidopsis thaliana) (protein)
chain: SSIVSSSVVTKEDNLRQSEPSSFDFMSYIITKAELVNKALDSAVPLREPLKIHEAMRYSLLAGGKRVRPVLCIAACELVGGEESTAMPAACAVEMIHTMSLIHDDLPCMDNDDLRRGKPTNHKVFGEDVAVLAGDALLSFAFEHLASATSSDVVSPVRVVRAVGELAKAIGTEGLVAGQVVDISSEGLDLNDVGLEHLEFIHLHKTAALLEASAVLGAIVGGGSDDEIERLRKFARCIGLLFQVVDDILDVTKSSKELGKTAGKDLIADKLTYPKIMGLEKSREFAEKLNREARDQLLGFDSDKVAPLLALANYIAYRQN
B2: SlG2 (Solanum lycopersicum) (protein)
chain: IATNEKVVMEKEEFNFKVYVAEKAICVNKALDEAIMVKDPPKIHEAMRYSLLAGGKRVRPMLCLAACELVGGNQGNAMAAACAVEMIHTMSLIHDDLPCMDDDDLRRGKPTNHKVYGEDVAVLAGDALLAFAFEYLATATTGVPPSRILVAVAELAKSVGTEGLVAGQVADLACTGNPNVGLEMLEFIHIHKTAALLEASVVIGAILGGGADEEVDKLRRFAQCIGLLFQVVDDILDVTKSSSELGKTAGKDLAVDKTTYPKLLGLEKAKEFAAELNGEAKQQLAAFDSHKAAPLIALADYIANRQN
B3: SlG1 (Solanum lycopersicum) (protein)
chain: VSSKAEKFILPEFEFQEYMVTKAIKVNKALDEAIPMQEPIKVHEAMRYSLLAGGKRVRPILCMASCEVVGGDESLAIPAACAVEMIHTMSLVHDDLPCMDNDDLRRGKPTNHKIFGENTAVLAGDALLSLAFEHVATKTQNVPPQRVVQAIGELGSAVGSEGLVAGQIVDLASEGKQVSLTELEYIHHHKTSKLLEAAVVCGAIMGGGNEVDVERMRSYARCIGLLFQVVDDILDVTKSSDELGKTAGKDLITDKATYPKLMGLEKARQYAGELMAKAMNELSYFDYAKAAPLYHIASYIANRQN

The record followed here is paper doi:10.1101/2020.07.08.194076v1.

Substrate in one data set: C=C(C)CCO[P@@](=O)(O)OP(=O)(O)O
The data set is described as follows: purified protein. The note with it: co-substrate 100 µM DMAPP.
For B1, the Michaelis-Menten constant (Km) (in general, the substrate concentration at which the rate is half of its maximum) came out at 38.49 ± 4.94 µM.

B2: the Km was 79.75 ± 8.33 µM.

Consider B3, for which the Michaelis constant (Km) is recorded as 74.18 ± 7.55 µM.

Substrate in another data set: CC(C)=CCOP(=O)(O)OP(=O)(O)O
The data set is described as follows: purified protein. To be noted: co-substrate 100 µM IPP.
As to B1, the Km is recorded as 32.86 ± 4.86 µM.

As to B2, the Michaelis constant (Km) turned out to be 49.55 ± 5.31 µM.

In the case of B3, the Michaelis-Menten constant (Km) was 31.82 ± 2.92 µM.
